Experiments:
[1] = substrate: CC(=O)N[C@@H](CS)C(=O)N[C@H]1[C@@H](O[C@@H]2[C@H](O)[C@H](O)[C@@H](O)[C@H](O)[C@H]2O)O[C@H](CO)[C@@H](O)[C@@H]1O; details: Mycobacterium tuberculosis
Description: Binding affinity to Mycobacterium tuberculosis MST assessed as Km by differential scanning fluorimetry method

[2] = substrate: CC(=O)N[C@@H](CS)C(=O)N[C@H]1[C@@H](O[C@@H]2[C@H](O)[C@H](O)[C@@H](O)[C@H](O)[C@H]2O)O[C@H](CO)[C@@H](O)[C@@H]1O; details: Mycobacterium tuberculosis; remark: listed apart in the source
Description: Binding affinity to Mycobacterium tuberculosis MST assessed as Km in presence of zinc

B1: Conserved protein (Mycobacterium tuberculosis), O53728 (protein)
chain: MASTDAAAQELLRDAFTRLIEHVDELTDGLTDQLACYRPTPSANSIAWLLWHSARVQDIQVAHVAGVEEVWTRDGWVDRFGLDLPRHDTGYGHRPEDVAKVRAPADLLSGYYHAVHKLTLEYIAGMTADELSRVVDTSWNPPVTVSARLVSIVDDCAQHLGQAAYLRGIAR
**Q.** For B1, which Km [1] is on record?
**A.** 18.4 µM

**Q.** What about the Km [2] of the same protein?
**A.** 9.8 µM

From ChEMBL document CHEMBL5252635, “The Mycobacterium tuberculosis mycothiol S-transferase is divalent metal-dependent for mycothiol binding and transfer” (2023)
